Publication PMC9304225
Where “and” joins values, the source holds several entries; their conditions need not be identical. Identical values can stand only once.

How the values were obtained:
[1] = target: RING_(MUL1):UBE2D2 complex (UniProt Q969V5); assay: ITC
UBE2D2 = UBE2D2 (UniProt P62837); assay: ITC
[2] = target: p53 transactivation domain (residues 1–73) (human) (UniProt P04637); assay: NMR titration
Sequence of p53 transactivation domain (residues 1–73) (human) (P04637 1-73): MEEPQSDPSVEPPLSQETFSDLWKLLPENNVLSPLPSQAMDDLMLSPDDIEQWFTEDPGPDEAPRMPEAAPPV

Sequence of p53 transactivation domain (residues 1–73) (P04637 1-73): as above
Sequence of RING domain of MUL1 (residues 298–352) (Q969V5 298-352): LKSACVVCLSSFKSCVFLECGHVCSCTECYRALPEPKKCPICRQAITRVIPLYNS

| Substance | Kd [1] | dH [1] | stoichiometry N [1] | Kd [2] | also measured |
| --- | --- | --- | --- | --- | --- |
| AD39 peptide (p53 residues 39–57) | 184 µM and 175 µM and 193 µM | -1.13 kcal/mol and -1.15 kcal/mol and -1.12 kcal/mol | 0.88 and 0.89 and 0.87 | – | – |
| RING domain of MUL1 (residues 298–352) (from UniProt Q969V5 298-352) (domain or fragment) | – | – | – | – | Kd (UBE2D2): 43 µM and 28 µM and 13 µM; dH (UBE2D2): 1.5 kcal/mol |
| p53 transactivation domain (residues 1–73) (from UniProt P04637 1-73) (domain or fragment) | 111 µM | -0.673 kcal/mol | 1.01 | – | – |

Second part, led by results:

| Kd [1] | dH [1] | stoichiometry N [1] | Kd [2] | Substance | also measured |
| --- | --- | --- | --- | --- | --- |
| – | – | – | 171 µM | RING_(MUL1):UBE2D2 complex (from UniProt Q969V5 298-352; P62837 1-147) | – |
| – | – | – | 735 µM | UBE2D2 (from UniProt P62837 1-147) (enzyme) | – |
